{"source": "patent US11447809B2", "about": "“Evolution of tRNA synthetases” (President and Fellows of Harvard College, priority 2017, dated 2022)", "key": {"tRNACUA^Tyr/Opt": {"test_system": "tRNACUA^Tyr/Opt", "test": "Aminoacylation assay of MjTyrRS variants (32P-labeled tRNA, nuclease P1/TLC)", "type": "biochemical", "details": "for Relative catalytic efficiency: relative to p-NFRS with p-NF", "experimental": "(§1) The genes of chPylRS variants and MjTyrRS variants were cloned into pET15a and transformed into BL21(DE3) (New England Biolabs) cells for expression. Cells were grown in 500 mL of LB media supplemented with 100 m/mL ampicillin at 37° C. to an A600 of 0.6-0.8, and protein expression was induced by addition of 0.5 mM IPTG (chPylRS variants) or 1 mM IPTG (MjTyrRS variants). Cells were incubated at 30° C. for an additional 6 h (chPylRS variants) or 4 h (MjTyrRS variants) and harvested by centrifugation at 5,000 g for 10 min at 4° C. The cell pellet was resuspended in 15 mL of lysis buffer (50 mM Tris (pH 7.5), 300 mM NaCl, 20 mM imidazole), and cells were lysed by sonication. The crude extract was centrifuged at 20,000 g for 30 min at 4° C. The soluble fraction was loaded onto a column containing 2 mL of Ni-NTA resin (Qiagen) previously equilibrated with 20 mL of lysis buffer. The column was washed with 20 mL of lysis buffer. The bound protein was then eluted with 2 mL of 50 mM Tris (pH 7.5), 300 mM NaCl, 300 mM imidazole. The purified protein was dialyzed with 50 mM HEPES-KOH (pH 7.5), 50 mM KCl, 1 mM DTT and 50% glycerol and stored at −80° C. for further studies.\n(§2) Template plasmid containing the tRNA^Pyl or tRNACUA^Tyr/Opt gene was purified with the plasmid maxi kit (Qiagen). The plasmid containing tRNA^Pyl (100 μg) was digested with BstNI (New England Biolabs). The tRNACUA^Tyr/Opt gene was amplified by PCR. The BstNI digested template DNA or PCR product was purified by phenol chloroform extraction, followed by ethanol precipitation and dissolved in double distilled water. A His-tagged T7 RNA polymerase was purified over a column of Ni-NTA resin according to manufacturer's instructions (Qiagen). The transcription reaction (40 mM Tris (pH 8); 4 mM each of UTP, CTP, GTP, and ATP at pH 7.0; 22 mM MgCl2; 2 mM spermidine; 10 mM DTT; 6 μg pyrophosphatase (Roche Applied Science); 60 m/mL of DNA template, approximately 0.2 mg/mL T7 RNA polymerase) was performed in 10 mL reactions overnight at 37° C. The tRNA was purified on 12% denaturing polyacrylamide gel containing 8 M urea and TBE buffer (90 mM Tris, 90 mM boric acid, 2 mM EDTA). UV shadowing was used to illuminate the pure tRNA band, which was excised and extracted three times with 1M sodium acetate pH 5.3 at 4° C. The tRNA extractions were then ethanol precipitated, dissolved in RNase-free distilled water, pooled, and finally desalted using a Biospin 30 column (BioRad). The tRNA was refolded by heating to 100° C. for 5 min and slow cooling to room temperature. At 65° C., MgCl2 was added to a final concentration of 10 mM to aid folding. A His-tagged CCA adding enzyme was purified over column of Ni-NTA resin according to manufacturer's instructions (Qiagen). 16 μM refolded tRNA in 50 mM Tris (pH 8.0), 20 mM MgCl2, 5 mM DTT, and 50 μM NaPPi was incubated at room temperature for 1 h with approximately 0.2 mg/mL CCA-adding enzyme and 1.6 μCi/μL of (α-^32P)-labeled ATP (PerkinElmer). The sample was phenol/chloroform extracted and then passed over a Bio-spin 30 column (Bio-Rad) to remove excess ATP.\n(§3) A 20 μL aminoacylation reaction contained the following components for chPylRS variants: 50 mM HEPES-KOH (pH 7.2), 25 mM KCl, 10 mM MgCl2, 5 mM DTT, 10 mM ATP, 25 μg/mL pyrophosphatase (Roche Applied Science), 10 mM amino acids, 500 nM PylRS variants, 5 μM unlabeled tRNA^Pyl, and 100 nM ^32P-labeled tRNA^Pyl. A 20 μL aminoacylation reaction contained the following components for MjTyrRS variants: 50 mM Tris-HCl (pH 7.5), 1 mM DTT, 10 mM MgCl2, 10 mM ATP, 20 μM unlabeled tRNACUA^Tyr/Opt, 3 μM ^32P-labeled tRNACUA^Tyr/Opt, 2 μM MjTyrRS variants. […]"}, "[1]": {"test_system": "sfGFP(Asn39TAG) expressed in BL21 star DE3 cells", "test": "ESI-MS analysis of purified sfGFP(Asn39TAG) for amino acid incorporated", "type": "cell-based, E. coli", "experimental": "Expression of His-tagged sfGFP was performed using the plasmids, cell strains, and antibiotic concentrations described in the methods for sfGFP assays. Saturated overnight cultures were prepared from single colonies of cotransformed cells, which were diluted 1,000-fold into 300 mL of LB media containing 1 mM ncAA where denoted and were grown while shaking at 230 rpm at 37° C. Once the cultures utilizing a pDB070 plasmid grew to a cell density of A600=0.3, AARS expression was induced by supplementing with anhydrotetracycline (ATc) to a final concentration of 200 ng/mL, and incubation was continued. […] Once cultures grew to a cell density of A600=0.5, sfGFP expression was induced by supplementation with a final concentration of 1 mM isopropyl-β-D-thiogalactosidase (IPTG) for cultures utilizing a pET28b(+) plasmid or a final concentration of 1 mM arabinose for cultures utilizing a pBAD plasmid. Incubation with shaking at 37° C. continued for an additional 16 h after induction of sfGFP expression. Cells were harvested by centrifugation at 5,000 g for 10 min at 4° C., and the resulting pellets were resuspended in B-PER II Bacterial Protein Extraction Reagent (Thermo Fisher Scientific) containing EDTA-free protease inhibitor cocktail (Roche). The soluble fraction of the cell lysates were diluted by an equal volume of equilibration buffer (20 mM Tris (pH 7.4), 10 mM imidazole, 300 mM NaCl) and were separately loaded onto a column containing 2 mL of HisPur Ni-NTA resin (Thermo Fisher Scientific) that had been pre-washed with two bed-volumes of equilibration buffer. […]\nPurified protein samples were diluted to 10 μM in dialysis buffer lacking reducing agent or glycerol prior to analysis on an Agilent 6220 ESI-TOF mass spectrometer equipped with an Agilent 1260 HPLC. […] Data was analyzed using Agilent MassHunter Qualitative Analysis software (B.06.00, Build 6.0.633.0 with Bioconfirm). […]"}, "tRNA^Pyl": {"test_system": "tRNA^Pyl", "test": "Aminoacylation assay of chPylRS variants (32P-labeled tRNA, nuclease P1/TLC)", "type": "biochemical", "experimental": "as §1, §2, §3"}}, "note": "Like-named read-outs stand apart in the source and are kept apart here.", "data": [{"molecule": "p-NFRS: previously evolved MjTyrRS variant charging p-nitro-L-phenylalanine; SEQ ID NO: 18, 22 (protein) MDEFEMIKRNTSEIISEEELREVLKKDEKSALIGFEPSGKIHLGHYLQIKKMIDLQNAGFDIIILLADLHAYLNQKGELDEIRKIGDYNKKVFEAMGLKAKYVYGSSFQLDKDYTLNVYRLALKTTLKRARRSMELIAREDENPKVAEVIYPIMQVNPLNYEGVDVAVGGMEQRKIHMLARELLPKKVVCIHNPVLTGLDGEGKMSSSKGNFIAVDDSPEEIRAKIKKAYCPAGVVEGNPIMEIAKYFLEYPLTIKRPEKFGGDLTVNSYEELESLFKNKELHPMRLKNAVAEELIKILEPIRKRL", "values": [{"measurement": "kcat", "setting": "tRNACUA^Tyr/Opt; amino acid Phe", "value": "0.14 ± 0.003", "unit": "s^−1 × 10^−3"}, {"measurement": "Km", "setting": "tRNACUA^Tyr/Opt; amino acid Phe, read-out: KM^ncAA", "value": "160 ± 30", "unit": "µM"}, {"measurement": "Relative catalytic efficiency", "setting": "tRNACUA^Tyr/Opt; amino acid Phe", "value": 2.3}, {"measurement": "Km", "setting": "tRNACUA^Tyr/Opt; ncAA p-IF", "value": "2230 ± 460", "unit": "µM"}, {"measurement": "kcat", "setting": "tRNACUA^Tyr/Opt; ncAA p-IF", "value": "0.87 ± 0.11", "unit": "s^−1 × 10^−3"}, {"measurement": "Relative catalytic efficiency", "setting": "tRNACUA^Tyr/Opt; ncAA p-IF", "value": 1.03}, {"measurement": "Km", "setting": "tRNACUA^Tyr/Opt; ncAA p-NF", "value": "3680 ± 290", "unit": "µM"}, {"measurement": "kcat", "setting": "tRNACUA^Tyr/Opt; ncAA p-NF", "value": "1.40 ± 0.05", "unit": "s^−1 × 10^−3"}, {"measurement": "Relative catalytic efficiency", "setting": "tRNACUA^Tyr/Opt; ncAA p-NF", "value": 1.00}, {"measurement": "charging of p-IF", "setting": "[1]; LB media, 1 mM p-IF", "value": "efficiently charges p-iodo-L-phenylalanine (p-IF)"}, {"measurement": "charging of Phe", "setting": "[1]; overnight expression in LB media, presence or absence of 1 mM p-NF", "value": "efficiently charges Phe"}]}, {"molecule": "p-IFRS: previously reported MjTyrRS variant evolved to charge p-IF; His160; SEQ ID NO: 19, 23 (protein) MDEFEMIKRNTSEIISEEELREVLKKDEKSALIGFEPSGKIHLGHYLQIKKMIDLQNAGFDIIILLADLHAYLNQKGELDEIRKIGDYNKKVFEAMGLKAKYVYGSSFQLDKDYTLNVYRLALKTTLKRARRSMELIAREDENPKVAEVIYPIMQVNPLHYEGVDVAVGGMEQRKIHMLARELLPKKVVCIHNPVLTGLDGEGKMSSSKGNFIAVDDSPEEIRAKIKKAYCPAGVVEGNPIMEIAKYFLEYPLTIKRPEKFGGDLTVNSYEELESLFKNKELHPMRLKNAVAEELIKILEPIRKRL", "values": [{"measurement": "selectivity of incorporation into sfGFP", "setting": "[1]; LB media supplemented with both 1 mM p-NF and 1 mM p-IF", "value": "selectively incorporates p-IF"}]}, {"molecule": "chPylRS: chimera of residues 1-149 of MbPylRS and residues 185-454 of MmPylRS; progenitor enzyme (SEQ ID NO: 5) (protein) MDKKPLDVLISATGLWMSRTGTLHKIKHYEVSRSKIYIEMACGDHLVVNNSRSCRTARAFRHHKYRKTCKRCRVSDEDINNFLTRSTEGKTSVKVKVVSAPKVKKAMPKSVSRAPKPLENPVSAKASTDTSRSVPSPAKSTPNSPVPTSASAPALTKSQTDRLEVLLNPKDEISLNSGKPFRELESELLSRRKKDLQQIYAEERENYLGKLEREITRFFVDRGFLEIKSPILIPLEYIERMGIDNDTELSKQIFRVDKNFCLRPMLAPNLYNYLRKLDRALPDPIKIFEIGPCYRKESDGKEHLEEFTMLNFCQMGSGCTRENLESIITDFLNHLGIDFKIVGDSCMVYGDTLDVMHGDLELSSAVVGPIPLDREWGIDKPWIGAGFGLERLLKVKHDFKNIKRAARSESYYNGISTNL", "values": [{"measurement": "kcat", "setting": "tRNA^Pyl; BocK substrate, Table 7", "value": "11.88 ± 0.18", "unit": "s^−1 × 10^−3"}, {"measurement": "Km", "setting": "tRNA^Pyl; BocK substrate, Table 7, read-out: KM^ATP", "value": "2.54 ± 0.16", "unit": "µM"}, {"measurement": "Km", "setting": "tRNA^Pyl; BocK substrate, Table 7, read-out: KM^tRNA", "value": "0.26 ± 0.07", "unit": "µM"}, {"measurement": "kcat", "setting": "tRNA^Pyl; L-pyrrolysine substrate, Table 8", "value": "33.24 ± 2.74", "unit": "s^−1 × 10^−3"}, {"measurement": "Km", "setting": "tRNA^Pyl; L-pyrrolysine substrate, Table 8, read-out: KM^Pyl", "value": "21.03 ± 0.15", "unit": "µM"}, {"measurement": "Km", "setting": "tRNA^Pyl; Table 7, read-out: KM^bocK", "value": "1030 ± 50", "unit": "µM"}, {"measurement": "Relative catalytic efficiency", "setting": "tRNA^Pyl; kcat/KM^tRNA relative to chPylRS", "value": 1}]}]}
